Holding throughout (assay type): biochemical
A short description of series [1]: Optimum pH for enzyme activity. The conditions noted are these: 25° C.; acetate, cacodylate, phosphate, TAPS, CHES, CAPS buffers pH 4.0-11.0. As for the experimental part: Purified enzymes were prepared to examine the optimum pH and temperature for β-galactoside-α2,3-sialyltransferase produced by the strain JT-ISH-467 as well as recombinant β-galactoside-α2,3-sialyltransferases produced by the third clone of ISH467-N2C0, the first clone of ISH224-N1C0 and the first clone of FAJ-N1C0.
Acetate buffer (pH 4.0, pH 4.5 and pH 5.0), cacodylate buffer (pH 5.0, pH 5.5, pH 6.0, pH 6.5 and pH 7.0), phosphate buffer (pH 7.0, pH 7.5 and pH 8.0), TAPS buffer (pH 8.0, pH 8.5 and pH 9.0), CHES buffer (pH 9.0, pH 9.5 and pH 10.0) and CAPS buffer (pH 10.0, pH 10.5 and pH 11.0) were prepared and used for enzyme activity measurement at 25° C. at various pH values.
As a result, as shown in FIGS. 3-1 and 3-2, the enzyme activity was maximum at pH 5.0 for β-galactoside-α2,3-sialyltransferase produced by the strain JT-ISH-467, at pH 5.5 for the third clone of ISH467-N2C0, at pH 5.0 for the first clone of ISH224-N1C0, and at pH 5.5 for the first clone of FAJ-N1C0. […] It should be noted that enzyme activity at each pH was expressed as relative activity, assuming that the enzyme activity at pH where it reached a maximum was set to 100.

The nature of series [2]: Sialyltransferase activity in E. coli homogenate (crude enzyme solution), transfer of 14C-NeuAc from CMP-NeuAc to lactose. The conditions noted are these: lactose acceptor; for Radioactivity (cpm) Average: average of duplicate; for Sialyltransferase activity in crude enzyme solution (in words): CMP-14C-NeuAc donor. As for the experimental part: Sialyltransferase activity was measured as described in J. Biochem., 120, pp. 104-110 (1996) (which is hereby incorporated by reference in its entirety). More specifically, the enzymatic reaction was accomplished by using CMP-NeuAc (70 nmol, containing 25000 cpm CMP-NeuAc in which NeuAc was labeled with ^14C, 356 cpm/nmol; NeuAc represents N-acetylneuraminic acid) as a glycosyl donor substrate, lactose (1.25 μmol) as a glycosyl acceptor substrate, NaCl added to give a concentration of 0.5 M, and the enzyme-containing reaction solution (30 μl) prepared as described above. The enzymatic reaction was carried out at 25° C. for 10 to 30 minutes. After completion of the reaction, 1.97 ml of 5 mM phosphate buffer (pH 6.8) was added to the reaction solution, which was then applied to a Dowex 1×8 (PO4^3− form, 0.2×2 cm, BIO-RAD) column. The radioactivity was measured for the reaction product, i.e., sialyllactose contained in the eluate (0 to 2 ml) from this column to calculate the enzyme activity.
An induction experiment of protein expression was performed on the two 467-N0C0 clones and the three 467-N2C0 clones obtained in (4) above. A single colony of E. coli TB1 having the expression vector pTrc99A carrying each clone was inoculated into LB medium (5 ml) containing an antibiotic, ampicillin (final concentration 100 μg/mL), and pre-cultured at 30° C. to about A600=0.5, followed by addition of IPTG (isopropyl-β-D(−)-thiogalactopyranoside, Wako Pure Chemical Industries, Ltd. Japan) at a final concentration of 1 mM. After culturing with shaking at 30° C. for an additional 4 hours, the cells in 2 ml culture solution were collected by centrifugation. These cells were suspended in 200 μl of 20 mM BisTris buffer (pH 7.0) containing 0.336% Triton X-100 and 0.5 M sodium chloride, and ultrasonically homogenized under ice cooling. The resulting homogenate was defined as a crude enzyme solution and provided for activity measurement. The reaction was carried out in duplicate, and the reaction composition was the same as shown in Example 1, except that the reaction time was set to 15 hours.
In the same manner as shown in Example 5(5), an induction experiment of protein expression was performed on 2 clones, i.e., the first clone of ISH224-N0C0 and the first clone of ISH224-N1C0 to measure their enzyme activity.
In the same manner as shown in Example 5(5), an induction experiment of protein expression was performed on 3 clones, i.e., the first clone of FAJ-N0C0 as well as the first and second clones of FAJ-N1C0 to measure their enzyme activity.

A short description of series [3]: Confirmation of α2,3 sialyltransferase activity of E. coli-expressed enzyme with pyridylaminated lactose, HPLC. The conditions noted are these: pyridylaminated lactose 2.0 μM, CMP-sialic acid 5.7 μM, pH 6.0, 25° C., 6 hours. How it is done:
Using the enzyme obtained in Example 2, the enzymatic reaction was carried out using a pyridylaminated sugar chain as a glycosyl acceptor substrate. The pyridylaminated sugar chain used for analysis was pyridylaminated lactose (Galβ1-4Glc-PA, Takara Bio Inc., Japan). The glycosyl acceptor substrate, CMP-NeuAc and the enzyme were dissolved at 2.0 μM, 5.7 μM and 20 mU/ml, respectively, in 25 μl of 20 mM cacodylate buffer (pH 6.0), and then reacted at 25° C. for 3 hours. After the reaction, the reaction solution was treated at 100° C. for 2 minutes to inactivate the enzyme, followed by HPLC to analyze the reaction product.
The HPLC system used was Shimadzu LC10A (Shimadzu Corporation, Japan) and the analytical column used was Takara PALPAK Type R (Takara Bio Inc., Japan). The column which had been equilibrated with 100 mM acetate-triethylamine (pH 5.0) containing 0.15% N-butanol was injected with the reaction solution diluted with Eluent A (100 mM acetate-triethylamine, pH 5.0). For elution of the pyridylaminated sugar chain, Eluent A (100 mM acetate-triethylamine, pH 5.0) and Eluent B (100 mM acetate-triethylamine containing 0.5% n-butanol, pH 5.0) were used to successively elute the pyridylaminated sugar chain with a linear gradient of 30% to 100% Eluent B (0 to 35 minutes) and then 100% Eluent B (35 to 50 minutes). The analysis was performed under the following conditions: flow rate: 1 ml/min, column temperature: 40° C., detection: fluorescence (Ex: 320 nm, Em: 400 nm).
As in the case of Example 3, pyridylaminated lactose (Galβ1-4Glc-PA, PA-Sugar Chain 026, Takara Bio Inc., Japan) was used as a glycosyl acceptor to carry out the enzymatic reaction. After the reaction, the reaction solution was heated at 95° C. for 5 minutes to inactivate the enzyme, followed by HPLC analysis. It should be noted that the enzymatic reaction was accomplished at 25° C. for 6 hours using pyridylaminated lactose and CMP-sialic acid dissolved at 2.0 μM and 5.7 μM, respectively, in 25 μl of 20 mM cacodylate buffer (pH 6.0) (Reaction 1). On the other hand, a control experiment (Reaction 2) was carried out using a reaction solution free from CMP-sialic acid. Further, to clarify the retention time of standards, the crude enzyme solution was inactivated by thermal treatment (95° C., 5 minutes) and tested in the presence of pyridylaminated lactose and pyridylaminated α2,3-sialyllactose (pyridylaminated 3′-sialyllactose) (Neu5Acα2-3Galβ1-4Glc-PA, PA-Sugar Chain 029, Takara Bio Inc., Japan).

Setting [4] is: JT-ISH-224 gene clones, as Example 5(5).
Where [5] appears, read: JT-FAJ-16 gene clones, as Example 5(5).
[6] abbreviates: JT-ISH-467 gene clones, 25° C., reaction time 15 hours.

B1: ISH224-N1C0 first clone: JT-ISH-224 sialyltransferase lacking signal peptide region, nucleotides 73 to 1230 of SEQ ID NO: 28 (protein, listed as Photobacterium sp.)
chain: MLVFCKKMFFSVFISLMILGGCNSDSNHNNSDGNITKNKTIEVYVDRATLPTIQQMTQIINENSNNKKLISWSRYPINDEELLESINGSFFKNNSELIKSLDSMILTNDIKKVIINGNTLWAADVVNIIKSIEAFGKKTEIELNFYDDGSAEYVRLYDFSKLPESEQEYKISLSKDNILSSINGTQPFENVVENIYGFSQLYPTTYHMLRADIFETNLPLRSLKGVLSNNIKQMKWDYFKTFNSQQKDKFYNFTGFNPDEIMEQYKASPNKNFIFVGTNSGTATAEQQIDILTEAKNPNSPIITKSIQGFDLFFKGHPSATYNKQIIDAHNMIEIYNKIPFEALIMTDALPDAVGGMGSSVFFSLPNTVENKFIFYKSDTDIENNALIQVMIELNIVNRNDVKLISDLQ
modifications: CDS (1)..(1230) /gene=“224-23ST” /product=“Beta-galactoside-alpha-2,3-sialyltransferase”
For the molecule B1, in series [1], the “pH at which the enzyme activity was maximum (optimum pH)” value (from here on “pH”) is on record as 5.0. In series [2] (setting [4]), the “Radioactivity (cpm) Round 1” value stood at 9330 cpm, the “Radioactivity (cpm) Round 2” value amounted to 9415 cpm and the “Radioactivity (cpm) Average” value is 9672.5 cpm. Moreover, the “Sialyltransferase activity in crude enzyme solution (in words)” value (shortened to “Sialyltransferase activity … (in words)”) in series [2] was “sialyltransferase activity was observed”. For the same molecule, the “α2,3 sialyltransferase activity (formation of pyridylaminated α2,3-sialyllactose)” value (shortened to “α2,3 sialyltransferase activity”) in series [3] is given as “a peak of pyridylaminated α2,3-sialyllactose (pyridylaminated 3′-sialyllactose) was detected”.

B2: FAJ-N1C0 first clone: JT-FAJ-16 sialyltransferase lacking signal peptide region, nucleotides 67 to 1209 of SEQ ID NO: 30 (protein, listed as Vibrio sp.)
chain: MKNIITKRMLIILSSLFTIIGCNNDNSTTTNNNAIEIYVDRATLPTIQQMTKIVSQKTSNKKLISWSRYPITDKSLLKKINAEFFKEQFELTESLKNIILSENIDNLIIHGNTLWSIDVVDIIKEVNLLGKNIPIELHFYDDGSAEYVRIYEFSKLPESEQKYKTSLSKNNIKFSIDGTDSFKNTIENIYGFSQLYPTTYHMLRADIFDTTLKINPLRELLSNNIKQMKWDYFKDFNYKQKDIFYSLTNFNPKEIQEDFNKNSNKNFIFIGSNSATATAEEQINIISEAKKENSSIITNSISDYDLFFKGHPSATFNEQIINAHDMIEINNKIPFEALIMTGILPDAVGGMGSSVFFSIPKEVKNKFVFYKSGTDIENNSLIQVMLKLNLINRDNIKLISDI
modifications: CDS (1)..(1209) /gene=“FAJ16-23ST” /product=“Beta-galactoside- alpha 2,3-sialyltransferase”
B2: the “pH” value in series [1] was determined as 5.5. Moreover, in series [2] (setting [5]), the “Radioactivity (cpm) Round 1” value was 5664 cpm, the “Radioactivity (cpm) Round 2” value is on record as 6724 cpm and the “Radioactivity (cpm) Average” value turned out to be 6194 cpm. Also, the “Sialyltransferase activity … (in words)” value in series [2] is “sialyltransferase activity was observed”. The “α2,3 sialyltransferase activity” value in series [3] was “a peak of pyridylaminated α2,3-sialyllactose (pyridylaminated 3′-sialyllactose) was detected”.

B3: ISH467-N2C0 third clone: JT-ISH-467 sialyltransferase lacking signal peptide region, nucleotides 73 to 1230 of SEQ ID NO: 1, no mutation (protein, listed as Photobacterium phosphoreum)
chain: MFVFCKKIFFLIFISLMILGGCNSDSKHNNSDGNITKNKTIEVYVDRATLPTIQQMTQIINENSNNKKLISWSRYPINDETLLESINGSFFKNRPELIKSLDSMILTNEIKKVIINGNTLWAVDVVNIIKSIEALGKKTEIELNFYDDGSAEYVRLYDFSRLPESEQEYKISLSKDNIQSSINGTQPFDNSIENIYGFSQLYPTTYHMLRADIFETNLPLTSLKRVISNNIKQMKWDYFTTFNSQQKNKFYNFTGFNPEKIKEQYKASPHENFIFIGTNSGTATAEQQIDILTEAKKPDSPIITNSIQGLDLFFKGHPSATYNQQIIDAHNMIEIYNKIPFEALIMTDALPDAVGGMGSSVFFSLPNTVENKFIFYKSDTDIENNALIQVMIELNIVNRNDVKLISDLQ
modifications: CDS (1)..(1230) /gene=“467-23ST” /product=“Beta-galactoside- alpha 2,3-sialyltransferase”
Take B3: the “pH” value in series [1] worked out at 5.5. In addition, in series [2] (setting [6]), the “Radioactivity (cpm) Round 1” value is recorded as 8547 cpm, the “Radioactivity (cpm) Round 2” value was found to be 8481 cpm and the “Radioactivity (cpm) Average” value turned out to be 8514 cpm. In addition, in series [2], the “Sialyltransferase activity … (in words)” value was “sialyltransferase activity was also observed”. The “α2,3 sialyltransferase activity” value in series [3] is reported as “found to have α2,3 sialyltransferase activity”.
